Target: T1, MBP-COP1 (Arabidopsis thaliana, UniProt P43254 1-675)
T1 sequence (looked up): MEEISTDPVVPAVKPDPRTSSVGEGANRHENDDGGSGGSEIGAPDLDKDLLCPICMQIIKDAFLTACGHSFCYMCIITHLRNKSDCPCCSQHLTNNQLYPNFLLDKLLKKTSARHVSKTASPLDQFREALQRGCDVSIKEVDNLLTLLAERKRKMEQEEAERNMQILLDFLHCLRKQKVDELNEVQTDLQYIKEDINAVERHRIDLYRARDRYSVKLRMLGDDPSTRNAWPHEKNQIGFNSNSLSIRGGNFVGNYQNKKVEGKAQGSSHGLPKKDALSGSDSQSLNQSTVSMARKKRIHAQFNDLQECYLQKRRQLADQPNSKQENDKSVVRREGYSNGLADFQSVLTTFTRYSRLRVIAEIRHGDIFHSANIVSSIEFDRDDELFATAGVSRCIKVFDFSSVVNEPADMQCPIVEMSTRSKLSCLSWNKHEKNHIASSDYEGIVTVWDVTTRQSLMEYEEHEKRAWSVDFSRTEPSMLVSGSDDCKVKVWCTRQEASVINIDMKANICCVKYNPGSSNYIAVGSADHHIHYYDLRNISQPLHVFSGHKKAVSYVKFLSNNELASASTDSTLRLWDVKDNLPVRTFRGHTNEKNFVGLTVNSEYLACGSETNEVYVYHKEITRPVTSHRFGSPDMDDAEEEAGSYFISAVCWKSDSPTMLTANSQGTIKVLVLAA
Test: pull-down

- binding result: binds
B1: GST-HEC2 (natural protein, Arabidopsis thaliana, UniProt Q9SND4 1-231, looked up)
chain: MDNSDILMNMMMQQMEKLPEHFSNSNPNPNPHNIMMLSESNTHPFFFNPTHSHLPFDQTMPHHQPGLNFRYAPSPSSSLPEKRGGCSDNANMAAMREMIFRIAVMQPIHIDPESVKPPKRKNVRISKDPQSVAARHRRERISERIRILQRLVPGGTKMDTASMLDEAIHYVKFLKKQVQSLEEHAVVNGGGMTAVAGGALAGTVGGGYGGKGCGIMRSDHHQMLGNAQILR

Reference: paper PMC7959245 (The Plant journal : for cell and molecular biology, 2020)
